From article PMC9165289, “Theranostic PSMA ligands with optimized backbones for intraoperative multimodal imaging and photodynamic therapy of prostate cancer” (European Journal of Nuclear Medicine and Molecular Imaging, 2022)
Where two headings read alike, the source gives them in different places.

Key:
LS174T-PSMA cells [1] = assay: in vitro targeted PDT assay (CellTiter-Glo); assay type: cell-based, human; conditions: 30 nM ligand, irradiated with 100 J/cm^2
Procedure: LS174T wildtype (LS174T-WT) and LS174T-PSMA cells were cultured to confluency in 48-well plates. Cells were incubated (2 h, 5% CO2, 37 °C) with 30-nM PSMA ligand in binding buffer (RPMI 1640 + 0.5% BSA) in triplicate. After washing with PBS, a 0.5-ml binding buffer was added to each well, and cells were irradiated with a NIR light-emitting diode (690 ± 20 nm). The typical forward voltage was 2.6 V creating a power output of 490 mW using 126 individual LED bulbs to ensure homogenous illumination of the area of interest predefined as 5 × 3 cm. The cells were irradiated at NIR radiant exposures of 100 J/cm^2 ([…]) and subsequently incubated for 1 h at 37 °C. Cells that only received the PSMA ligand, only the NIR light, or neither the ligand nor the light were included as controls. Cytotoxic effects of PDT with PSMA ligands were determined with a CellTiter-Glo™ assay (Promega Benelux) according to the manufacturer’s instructions. The binding buffer was replaced with 100-µl fresh binding buffer and 100-µl CellTiter-Glo® 2.0 Assay. Plates were shaken (2 min) and incubated for 10 min at room temperature. Next, luminescence was measured in a plate reader (Tecan Infinite® 200 PRO) to determine the metabolic activity of the cells.

[2] = system: LS174T-PSMA and LS174T wildtype xenografts; assay: ex vivo biodistribution of 111In-labeled ligands; design: species or system BALB/c nude mice; conditions: 0.3 nmol, 2 h p.i.
Procedure: (§1) All animal experiments were approved by the institutional Animal Welfare Committee of the Radboud University Medical Center and were conducted in accordance to the guidelines of the Revised Dutch Act on Animal Experimentation. Animal experiments were performed in 8–10 weeks old male BALB/c nude mice (Janvier). The mice were housed in individually ventilated cages (Blue line IVC, 3–5 mice per cage), under standard non-sterile conditions with cage enrichment present. There was free access to chlorophyll-free animal chow (Sniff Voer) and water. Mice were subcutaneously inoculated with 3.0 × 10^6 LS174T-PSMA cells in the right flank and 1.5 × 10^6 LS174T WT cells in the left flank (diluted in 200-µl RPMI 1640 medium). When xenografts were approximately 0.5 cm^3 (10–14 days after injection), mice were block-randomized into groups based on tumor size. The researchers were not blinded for the experimental groups.
(§2) Mice were intravenously injected with 0.3 nmol PSMA ligand, labeled with 10 MBq ^111In (molar activity 33.3 MBq/nmol) in PBS + 0.5% (w/v) BSA. For the ex vivo biodistribution, five groups (one group for each ligand) of four mice were included. Two hours p.i., all mice were euthanized by CO2/O2-asphyxiation. For two mice of each group (2 mice/ligand), background-subtracted fluorescence images were acquired with the IVIS imaging system (Xenogen VivoVision IVIS Lumina II, PerkinElmer), with a 640-nm excitation filter and a Cy5.5 emission filter and an acquisition time of 10 s. Next, µSPECT/CT imaging was performed in the same two mice per group, with a 1.0-mm diameter pinhole mouse collimator tube (U-SPECT II, MILabs). Mice were scanned for 30 min followed by a CT scan for anatomical reference (spatial resolution 160 μm, 615 μA, 65 kV). MILabs reconstruction software was used to reconstruct the µSPECT/CT scans, via an ordered-subset expectation maximization algorithm, energy windows 154–188 keV and 220–270 keV, 3 iterations, 16 subsets, and voxel size of 0.75 mm. SPECT/CT maximum intensity projections (MIPs) were created using the Inveon Research Workplace software (Siemens Preclinical Solutions, version 4.1). NIR fluorescence images were analyzed using Living Image software (PerkinElmer, version 4.2). After imaging, relevant tissues were dissected, weighed, and measured for radioactivity in a gamma-counter (2480 WIZARD^2 Automatic Gamma Counter, PerkinElmer). In addition, a blocking experiment with PSMA-N064 and PSMA-617 was performed. Full experimental procedures and results can be found in the supplementary data (Page 5, Supplementary Fig. 3).

[3] = ex vivo biodistribution of 111In-labeled ligands; design: species or system BALB/c nude mice; conditions: male, BALB/c nude, mouse, iv, 0.3 nmol, total radioactivity, 2 h p.i.; for tissue uptake at 2 h: 10 MBq/mouse, i.v.
Procedure: as §1, §2

LS174T-PSMA cells [4] = assay: in vitro binding and internalization assay; assay type: cell-based, human; conditions: 37 °C, 2 h
Procedure: The binding and internalization characteristics of the ligands were determined using LS174T-PSMA cells. Cells were cultured to confluency in 6-well plates followed by incubation with 50,000 counts per minute of ^111In-labeled ligand (0.1–0.25 pmol/well) in 1-ml RPMI + 0.5% BSA (37 °C, 2 h). Non-specific binding was determined by coincubation with 2(phosphonomethyl)-pentane-1,5-dioic acid (2-PMPA, 21.57 µM). PSMA-specific binding was defined as total binding minus the non-specific binding. To retrieve the membrane-bound fraction, cells were washed twice with PBS and incubated for 10 min at 0 °C with acid buffer (154-mM NaCl, 0.1 M acetic acid, pH 2.6). After incubation, the membrane-bound fraction was collected. Then, cells were washed and lysed with 0.1 M NaOH, and the cell lysate (intracellular activity) was collected. Intracellular and membrane-bound activity fractions were measured in a gamma-counter (2480 WIZARD^2 Automatic Gamma Counter, PerkinElmer).

## C[Si](C)(CCC[N+](CCCS(=O)(=O)[O-])(CCCS(=O)(=O)O)CCCS(=O)(=O)O)O[Si]1(O[Si](C)(C)CCC[N+](CCCS(=O)(=O)[O-])(CCCS(=O)(=O)O)CCCS(=O)(=O)O)n2c3c4ccccc4c2N=C2N=C(N=c4c5c(OCCCOC(=O)NCCCCCC(=O)NCCCC[C@H](NC(=O)CN6CCN(CC(=O)O)CCN(CC(=O)O)CCN(CC(=O)O)CC6)C(=O)NCCCC[C@H](NC(=O)[C@H](CCC(=O)O)NC(=O)c6ccccc6)C(=O)NC[C@H]6CC[C@H](C(=O)N[C@@H](Cc7ccc8ccccc8c7)C(=O)NCCCC[C@H](NC(=O)N[C@@H](CCC(=O)O)C(=O)O)C(=O)O)CC6)cccc5c(n41)=NC1=NC(=N3)c3ccccc31)c1ccccc12 [PSMA-N03]
LS174T-PSMA cells [1]
  cell viability: 25% ± 4%
[2]; 10 MBq/mouse, i.v., n=4
  Biodistribution Kidney: 142.4 ± 10.6 %ID/g
  Biodistribution Tumor+ LS174T-PSMA: 19.8 ± 1.9 %ID/g
[2]; 10 MBq/mouse, i.v., n=4, listed as N03
  Biodistribution Tumor+ LS174T-PSMA: ≥ 20 %ID/g
[2]
  Tumor/Negative tumor ratio: 19.9 ± 6.3
  Tumor/Prostate ratio: 35.1 ± 10.7
  Tumor/Salivary gland ratio: 35.0 ± 5.0
[3]; LS174T wildtype tumor, n=4, read-out: Biodistribution Tumor- LS174T
  tissue uptake at 2 h: 1.1 ± 0.2 %ID/g
[3]; LS174T-PSMA tumor, n=4, read-out: Biodistribution Tumor+ LS174T-PSMA
  tissue uptake at 2 h: 20 ± 2 %ID/g
[3]; adrenals, n=4, read-out: Biodistribution Adrenals
  tissue uptake at 2 h: 2.1 ± 0.8 %ID/g
[3]; blood, n=4, read-out: Biodistribution Blood
  tissue uptake at 2 h: 0.7 ± 0.1 %ID/g
[3]; bone marrow, n=4, read-out: Biodistribution Bone marrow
  tissue uptake at 2 h: 0.2 ± 0.1 %ID/g
[3]; bone, n=4, read-out: Biodistribution Bone
  tissue uptake at 2 h: 0.5 ± 0.1 %ID/g
[3]; duodenum, n=4, read-out: Biodistribution Duodenum
  tissue uptake at 2 h: 0.4 ± 0.03 %ID/g
[3]; heart, n=4, read-out: Biodistribution Heart
  tissue uptake at 2 h: 0.4 ± 0.04 %ID/g
[3]; kidney, n=4, read-out: Biodistribution Kidney
  tissue uptake at 2 h: 142 ± 11 %ID/g
[3]; liver, n=4, read-out: Biodistribution Liver
  tissue uptake at 2 h: 1.3 ± 0.1 %ID/g
[3]; lung, n=4, read-out: Biodistribution Lung
  tissue uptake at 2 h: 1.8 ± 0.4 %ID/g
[3]; muscle, n=4, read-out: Biodistribution Muscle
  tissue uptake at 2 h: 0.2 ± 0.1 %ID/g
[3]; pancreas, n=4, read-out: Biodistribution Pancreas
  tissue uptake at 2 h: 0.3 ± 0.02 %ID/g
[3]; prostate, n=4, read-out: Biodistribution Prostate
  tissue uptake at 2 h: 0.6 ± 0.2 %ID/g
[3]; salivary glands, n=4, read-out: Biodistribution Salivary glands
  tissue uptake at 2 h: 0.6 ± 0.1 %ID/g
[3]; spleen, n=4, read-out: Biodistribution Spleen
  tissue uptake at 2 h: 1.5 ± 0.4 %ID/g
[3]; stomach, n=4, read-out: Biodistribution Stomach
  tissue uptake at 2 h: 0.6 ± 0.1 %ID/g
[3]; tumor (LS174T-PSMA xenograft) / blood, read-out: Tumor/Blood ratio
  tissue to tissue ratio at 2 h: 27 ± 2.9
[3]; tumor (LS174T-PSMA xenograft) / kidney, read-out: Tumor/Kidney ratio
  tissue to tissue ratio at 2 h: 0.2 ± 0.02
[3]; tumor (LS174T-PSMA xenograft) / liver, read-out: Tumor/Liver ratio
  tissue to tissue ratio at 2 h: 15.1 ± 1.7
[3]; tumor (LS174T-PSMA xenograft) / spleen, read-out: Tumor/Spleen ratio
  tissue to tissue ratio at 2 h: 14.3 ± 4
LS174T-PSMA cells [4]
  internalization percentage (percentage of cell-associated ligand that was internalized): 73–90%
